# According to patent EP4792821A2 (Beijing Youcare Kechuang Pharmaceutical Technology Co., Ltd., dated 2026):
# *1 amine or outer side, *2 acyl side, *3 side chain or, on linkers, in order; H or OH if unused. Side-chain parts run from the residue outwards. The star is where a group is joined. Succinyl(4-O-cholesteryl) = CC(C)CCC[C@@H](C)[C@H]1CC[C@H]2[C@@H]3CC=C4C[C@@H](OC(=O)CCC(=O)*)CC[C@]4(C)[C@H]3CC[C@]12C; Suc = O=C(CCC(=O)[*:2])[*:1]
# How the values were obtained:
# Assay in all cases: cell-based or functional assay
# [1] = target: F protein of hMPV virus strain B1 (human metapneumovirus (hMPV) B1)
# [2] = target: F protein of hMPV virus strain A2 (human metapneumovirus (hMPV) A2)
# [3] = target: F protein of hPIV Type 3 (hPIV3 C243) (human Parainfluenza Virus type 3 (hPIV3 …))
# [4] = target: F protein of RSV A long virus strain (Respiratory Syncytial Virus (RSV) A …, UniProt P12568 26-574)
# Sequence of F protein of RSV A long virus strain (P12568 26-574): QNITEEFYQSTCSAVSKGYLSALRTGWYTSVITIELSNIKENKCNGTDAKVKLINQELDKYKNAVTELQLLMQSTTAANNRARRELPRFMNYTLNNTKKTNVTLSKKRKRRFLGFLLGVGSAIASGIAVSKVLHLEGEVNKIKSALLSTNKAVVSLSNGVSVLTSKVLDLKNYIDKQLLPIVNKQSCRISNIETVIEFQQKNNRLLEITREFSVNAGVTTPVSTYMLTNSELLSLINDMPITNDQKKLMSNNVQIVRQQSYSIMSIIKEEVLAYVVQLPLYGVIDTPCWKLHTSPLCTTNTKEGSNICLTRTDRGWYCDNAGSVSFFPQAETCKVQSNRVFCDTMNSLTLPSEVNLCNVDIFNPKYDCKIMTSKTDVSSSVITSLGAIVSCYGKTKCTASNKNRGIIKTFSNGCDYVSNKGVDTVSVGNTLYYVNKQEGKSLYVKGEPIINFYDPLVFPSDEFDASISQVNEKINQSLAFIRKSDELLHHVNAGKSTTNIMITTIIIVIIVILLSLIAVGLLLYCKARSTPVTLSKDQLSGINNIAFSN
Binder,"EC50 (nM), plaque reduction, hMPV B1 on Vero cells [1]","EC50 (nM), plaque reduction, hMPV A2 on Vero cells [2]","EC50 (nM), plaque reduction, hPIV3 C243 on LLC-MK2 cells [3]","IC50/nM, plaque reduction, RSV A long on HEp-2 cells (Table 2, Cell fusion inhibition activity) [4]"
Ac-DEFDASISQVNEKINQSLEEIRKSDELLHNEAAAKK([Suc-Succinyl(4-O-cholesteryl)])-NH2 [Compound 28],13.8 nM,58.6 nM,54.4 nM,12.4 nM
Ac-LVKKIDEFDASISQVNEKINQSLEEIRKSDELLHNVGSGSGK([Suc-Succinyl(4-O-cholesteryl)])-NH2 [Compound 29],11.1 nM,41.6 nM,26.3 nM,19.3 nM
Ac-YDELVFDASQVNEKINQSLEKIRKSDELLHNVEAAAKK([Suc-Succinyl(4-O-cholesteryl)])-NH2 [Compound 30],51.3 nM,94.8 nM,48.2 nM,14.9 nM
Ac-WDEFDASISQVNEKINQSLEEIRKSDELLHNVNALEAAAKK([Suc-Succinyl(4-O-cholesteryl)])-NH2 [Compound 38],16.6 nM,128 nM,26.4 nM,14.6 nM
Ac-WDEFDKKIEEVNKKIEESLKKIEESDKKLEEVNAEAAAKK([Suc-Succinyl(4-O-cholesteryl)])-NH2 [Compound 40],7.47 nM,13.8 nM,22.2 nM,11.7 nM
Ac-WDEFDKKIEEVNKKIEESLKKIEESDKKLEEVNEAAAKK([Suc-Succinyl(4-O-cholesteryl)])-NH2 [Compound 41],9.46 nM,11.7 nM,71.1 nM,14.8 nM
Ac-FDASIEEVNRRIEESLRRIEESDRRLEEVNAEAAAKK([Suc-Succinyl(4-O-cholesteryl)])-NH2 [Compound 42],10.1 nM,26.1 nM,18.9 nM,11.8 nM
Ac-WDEFDASIEEVNRRIEESLRRIEESDRRLEEVEAAAKK([Suc-Succinyl(4-O-cholesteryl)])-NH2 [Compound 43],8.01 nM,16.8 nM,16.1 nM,18.3 nM
